By Ki is commonly meant the dissociation constant of the complex between target and ligand, obtained from inhibition or displacement. A low value points to tighter binding.

Data on 7 molecules can be found in patent US8026218 (UNIVERSITY OF ARIZONA, dated 2011).

Assay [1] has as its target T1, rat µ opioid receptor (rat, UniProt P33535 1-398).
T1 construct: whole, on cells; membrane preparations of the transfected cells were used; also called rMOR; MOR
Briefly: competition vs [3H]DAMGO, rMOR cell membranes.

Assay [2] concerns the target T2, human NK1 receptor (human, UniProt P25103 1-407).
T2 construct: whole, on cells; membrane preparations of the transfected cells were used; also called hNK1; human neurokinin-1 receptor
The assay is described as follows: competition vs [3H]Substance P, hNK1 CHO cell membranes.

Assay [3] concerns the target T3, human δ opioid receptor (human, UniProt P41143 1-372). The assay is described as follows: cell-based or functional assay.
T3 sequence (P41143 whole entry, stated change not applied): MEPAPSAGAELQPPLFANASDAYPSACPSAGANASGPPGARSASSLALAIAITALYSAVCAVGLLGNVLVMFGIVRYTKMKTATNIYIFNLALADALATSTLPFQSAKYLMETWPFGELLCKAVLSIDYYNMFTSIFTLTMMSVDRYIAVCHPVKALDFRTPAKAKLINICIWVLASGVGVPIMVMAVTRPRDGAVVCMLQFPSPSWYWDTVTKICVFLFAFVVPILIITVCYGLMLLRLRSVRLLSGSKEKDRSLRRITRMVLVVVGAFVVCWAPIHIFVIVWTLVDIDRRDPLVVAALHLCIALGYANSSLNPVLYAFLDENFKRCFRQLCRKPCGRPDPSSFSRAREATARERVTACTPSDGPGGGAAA
The target of assay [4] is T1, rat µ opioid receptor. The assay is described as follows: cell-based or functional assay.
Assay [5] addresses T3, human δ opioid receptor. Briefly: competition vs [3H]DPDPE, hDOR cell membranes.
In assay [6] the target is T4, rat NK1 receptor (rat, UniProt P14600 1-407).
T4 construct: whole, on cells; membrane preparations of the transfected cells were used; also called rNK1; rNK-1
T4 sequence (P14600 whole entry): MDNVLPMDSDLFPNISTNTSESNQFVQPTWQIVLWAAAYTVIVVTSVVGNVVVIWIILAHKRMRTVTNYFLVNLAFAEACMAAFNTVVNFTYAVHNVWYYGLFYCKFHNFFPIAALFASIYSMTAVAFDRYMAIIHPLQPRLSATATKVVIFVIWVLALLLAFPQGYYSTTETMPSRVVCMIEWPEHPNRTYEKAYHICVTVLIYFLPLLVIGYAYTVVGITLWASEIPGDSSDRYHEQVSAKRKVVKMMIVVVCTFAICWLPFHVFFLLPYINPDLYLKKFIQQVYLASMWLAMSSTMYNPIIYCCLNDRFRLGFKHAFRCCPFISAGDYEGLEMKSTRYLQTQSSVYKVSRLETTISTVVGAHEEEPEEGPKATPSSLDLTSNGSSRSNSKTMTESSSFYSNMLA
Briefly: competition vs [3H]Substance P, rNK1 CHO cell membranes.

Assay [7] has as its target T3, human δ opioid receptor. The assay is described as follows: competition vs [3H]DPDPE, hDOR cell membranes. The source holds these as a separate data set.
In assay [8] the target is T5, guinea pig NK1 receptor (guinea pig, UniProt P30547 1-407). Briefly: cell-based or functional assay.
T5 sequence (P30547 whole entry): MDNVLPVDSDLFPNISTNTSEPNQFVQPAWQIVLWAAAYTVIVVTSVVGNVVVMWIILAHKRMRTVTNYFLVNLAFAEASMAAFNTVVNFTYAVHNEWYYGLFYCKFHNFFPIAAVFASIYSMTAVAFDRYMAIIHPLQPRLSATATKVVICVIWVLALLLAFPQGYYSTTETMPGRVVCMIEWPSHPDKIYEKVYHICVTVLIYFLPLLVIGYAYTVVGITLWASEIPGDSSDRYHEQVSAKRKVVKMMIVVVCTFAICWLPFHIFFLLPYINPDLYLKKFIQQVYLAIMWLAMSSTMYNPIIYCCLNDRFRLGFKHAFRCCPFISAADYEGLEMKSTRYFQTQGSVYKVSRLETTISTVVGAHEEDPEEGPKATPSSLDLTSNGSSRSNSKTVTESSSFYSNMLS
Assay [9] addresses µ opioid receptor of the guinea pig isolated ileum (guinea pig, UniProt P97266 1-98). Briefly: cell-based or functional assay.
The target in assay [10] is T2, human NK1 receptor. Briefly: competition vs [3H]Substance P, hNK1 CHO cell membranes. This is another data set of the same source.
The target of assay [11] is T1, rat µ opioid receptor. The assay is described as follows: competition vs [3H]DAMGO, rMOR cell membranes. The source holds these as a separate data set.
Assay [12] addresses T6, human δ opioid receptor (human, UniProt P41143 1-372).
T6 construct: whole, on cells; Assayed as membrane preparations of transfected cells; also called hDOR; DOR
Briefly: competition vs [3H]DPDPE, hDOR membranes.
T6 sequence (P41143 whole entry, stated change not applied): as the sequence (P41143 whole entry, stated change not applied) above

Assay [13] concerns the target T4, rat NK1 receptor. Briefly: competition vs [3H]Substance P, rNK1 CHO cell membranes. This is another data set of the same source.
In assay [14] the target is T2, human NK1 receptor. Briefly: competition vs [3H]Substance P, hNK1 CHO cell membranes. The source holds these as a separate data set.
In assay [15] the target is T1, rat µ opioid receptor. The assay is described as follows: competition vs [3H]DAMGO, rMOR cell membranes. The source holds these as a separate data set.
Assay [16] has as its target T3, human δ opioid receptor. Briefly: cell-based or functional assay. The source holds these as a separate data set.
Assay [17] deals with T1, rat µ opioid receptor. The assay is described as follows: cell-based or functional assay. The source holds these as a separate data set.
Assay [18] has as its target T4, rat NK1 receptor. Briefly: competition vs [3H]Substance P, rNK1 CHO cell membranes. The source holds these as a separate data set.
Assay [19] has as its target T3, human δ opioid receptor. The assay is described as follows: competition vs [3H]DPDPE, hDOR cell membranes. This is another data set of the same source.
The target in assay [20] is T4, rat NK1 receptor. Briefly: competition vs [3H]Substance P, rNK1 CHO cell membranes. This is another data set of the same source.
For assay [21], the target named is T3, human δ opioid receptor. The assay is described as follows: competition vs [3H]DPDPE, hDOR cell membranes. This is another data set of the same source.
Assay [22] concerns the target T2, human NK1 receptor. Briefly: competition vs [3H]Substance P, hNK1 CHO cell membranes. The source holds these as a separate data set.
For assay [23], the target named is T5, guinea pig NK1 receptor. Briefly: cell-based or functional assay. This is another data set of the same source.
Assay [24] deals with T4, rat NK1 receptor. Briefly: competition vs [3H]Substance P, rNK1 CHO cell membranes. The source holds these as a separate data set.
Assay [25] has as its target T3, human δ opioid receptor. Briefly: cell-based or functional assay. The source holds these as a separate data set.
Assay [26] deals with T1, rat µ opioid receptor. The assay is described as follows: cell-based or functional assay. This is another data set of the same source.
Assay [27] concerns the target T2, human NK1 receptor. Briefly: competition vs [3H]Substance P, hNK1 CHO cell membranes. This is another data set of the same source.
Assay [28] addresses T1, rat µ opioid receptor. The assay is described as follows: ratio of the Ki at rMOR to the Ki at hDOR.
The target in assay [29] is T1, rat µ opioid receptor. The assay is described as follows: competition vs [3H]DAMGO, rMOR cell membranes. This is another data set of the same source.
Assay [30] deals with T3, human δ opioid receptor. The assay is described as follows: competition vs [3H]DPDPE, hDOR cell membranes. This is another data set of the same source.

Where two headings read alike, the source gives them in different places. Bridge positions count the residues as written; N and C are the ends. Square brackets hold non-standard residues; d marks the D form. Ends that are not written are not given here. * marks the point of attachment. NH(3,5-(CF3)2-benzyl) = FC(F)(F)c1cc(CN*)cc(C(F)(F)F)c1; OBzl(3,5-(CF3)2) = FC(F)(F)c1cc(CO*)cc(C(F)(F)F)c1; Dmt = Cc1cc(O)cc(C)c1C[C@H](N)C(=O)O; Nle = CCCC[C@H](N)C(=O)O; NHBn = c1ccc(CN*)cc1

T2 sequence (P25103 whole entry): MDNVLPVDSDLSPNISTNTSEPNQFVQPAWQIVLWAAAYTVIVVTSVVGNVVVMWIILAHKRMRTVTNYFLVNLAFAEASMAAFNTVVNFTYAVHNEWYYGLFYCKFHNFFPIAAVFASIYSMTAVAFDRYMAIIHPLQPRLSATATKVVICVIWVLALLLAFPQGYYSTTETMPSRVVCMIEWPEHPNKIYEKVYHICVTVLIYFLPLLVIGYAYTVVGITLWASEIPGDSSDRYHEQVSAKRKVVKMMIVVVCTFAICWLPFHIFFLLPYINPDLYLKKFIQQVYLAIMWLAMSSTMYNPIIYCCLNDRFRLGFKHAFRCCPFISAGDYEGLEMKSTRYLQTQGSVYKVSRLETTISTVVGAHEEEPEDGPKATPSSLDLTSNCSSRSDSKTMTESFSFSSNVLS
T1 sequence (P33535 whole entry): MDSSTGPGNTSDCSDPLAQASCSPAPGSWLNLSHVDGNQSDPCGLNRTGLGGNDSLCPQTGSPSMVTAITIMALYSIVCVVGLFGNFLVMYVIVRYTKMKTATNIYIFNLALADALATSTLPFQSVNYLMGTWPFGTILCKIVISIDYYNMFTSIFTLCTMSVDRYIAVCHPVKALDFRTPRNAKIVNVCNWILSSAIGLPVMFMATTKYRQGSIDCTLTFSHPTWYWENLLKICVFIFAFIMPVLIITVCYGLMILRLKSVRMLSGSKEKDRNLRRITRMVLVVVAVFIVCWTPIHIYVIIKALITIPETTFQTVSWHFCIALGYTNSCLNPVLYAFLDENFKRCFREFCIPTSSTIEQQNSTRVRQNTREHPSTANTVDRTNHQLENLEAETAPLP
Sequence of µ opioid receptor of the guinea pig isolated ileum (P97266 whole entry): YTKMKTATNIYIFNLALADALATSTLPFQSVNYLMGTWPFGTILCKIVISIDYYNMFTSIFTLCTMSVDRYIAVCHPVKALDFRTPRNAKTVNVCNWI

B1: Tyr[DPenGlyPhePen]ProLeuTrpNHBn(CF3)2 (peptide)
peptide: YXGFXPLW
modifications: D-Pen at 2 and Pen at 5 (written X); disulfide 2-5; C-terminal NH-3,5-Bzl(CF3)2 amide
notes: cyclic; also called TY046
Turning to B1, the Ki with rat µ opioid receptor [1] came to 2330 nM; with human NK1 receptor [2] it was 0.0053 nM; with human δ opioid receptor [5] it was 1.7 nM. In addition, the “GTP binding EC50” value in the assay with human δ opioid receptor [3] was found to be 17.3 nM; with rat µ opioid receptor [4] it was 28.8 nM.
On to [Dmt][dA]GFMPLW-NHBn (also called TY034) [DmtDAlaGlyPheMetProLeuTrpNHBn], for which the Ki was determined as 317 nM with rat NK1 receptor [6], 0.1 nM with human δ opioid receptor [7], 2.4 nM with human NK1 receptor [10] and 0.14 nM with rat µ opioid receptor [11]. Further, the “GPI/LMMP Substance P antagonist Ke” value with guinea pig NK1 receptor [8] stood at 36.9 nM. Also, the “GPI/LMMP IC50” value in assay [9] turned out to be 11.4 nM.
For the molecule Y[dC]GF[Nle]P[dC]W-{NH(3,5-(CF3)2-benzyl)} (disulfide 2-7, also called TY038; TY38), the “fold lower affinity than TY027” value with human δ opioid receptor [12] was 85 fold.
With YXGFXPLW (D-Pen at 2 and 5 (written X); disulfide 2-5; C-terminal NH-3,5-Bzl(CF3)2 amide, cyclic; also called TY049) [Tyr[DPenGlyPheDPen]ProLeuTrpNHBn(CF3)2], the Ki came to 4.54 nM in the assay with rat NK1 receptor [13] and 0.18 nM with human NK1 receptor [2].
Take Y[dA]GW-{OBzl(3,5-(CF3)2)} (also called NP44) [Tyr-D-Ala-Gly-Trp-O-3′,5′(CF3)2-Bzl]: the Ki was 0.03 nM with human NK1 receptor [14], 48.5 nM in the assay with rat µ opioid receptor [15], 3.4 nM with rat NK1 receptor [18] and 306 nM in the assay with human δ opioid receptor [19]. Further, the figures for the “GTP EC50” value with human δ opioid receptor [16] and with rat µ opioid receptor [17] were 280 nM and 22.9 nM, respectively.
For [Dmt][dA]GFMPLW-{NH(3,5-(CF3)2-benzyl)} (also called TY032) [DmtDAlaGlyPheMetProLeuTrpNHBn(CF3)2], the Ki in the assay with rat NK1 receptor [6] was 2.3 nM; with human δ opioid receptor [7], 0.12 nM; with rat NK1 receptor [20], 2.3 nM; with human δ opioid receptor [21], 0.12 nM; with human NK1 receptor [10], 0.0079 nM; in the assay with human NK1 receptor [22], 0.0079 nM. In addition, in the assay with guinea pig NK1 receptor [8], the “GPI/LMMP Substance P antagonist Ke” value came out at 7.5 nM. Besides, in assay [9], the “GPI/LMMP IC50” value was found to be 18.6 nM.

B2: Tyr[DCysGlyPheNleProDCys]TrpNHBn(CF3)2 (peptide)
peptide: Y[dC]GF[Nle]P[dC]W-{NH(3,5-(CF3)2-benzyl)}
modifications: disulfide 2-7
notes: cyclic; also called TY038; [D-Cys2, D-Cys7]TY027
On to B2, for which, in the assay with guinea pig NK1 receptor [23], the “GPI Substance P antagonist Ke” value was determined as 12 nM. The Ki with rat NK1 receptor [24] is 7.1 nM; with human NK1 receptor [27], 0.25 nM; in the assay with rat µ opioid receptor [29], 160 nM; with human δ opioid receptor [30], 56 nM. The LogIC50 is -7.7 in the assay with rat NK1 receptor [24], -9.3 with human NK1 receptor [27], -8.8 in the assay with rat µ opioid receptor [29] and -6.9 with human δ opioid receptor [30]. Further, the “[35S]GTPγS binding EC50” value with human δ opioid receptor [25] stood at 51 nM; with rat µ opioid receptor [26], 22 nM. Further, the “[35S]GTPγS binding Emax” value in the assay with human δ opioid receptor [25] turned out to be 87%; in the assay with rat µ opioid receptor [26] it was 12%. The “[35S]GTPγS binding LogEC50” value with human δ opioid receptor [25] was -7.3; with rat µ opioid receptor [26], -7.7. Besides, the “Ki(µ)/Ki(δ)” value with rat µ opioid receptor [28] is 2.9.
